Reference: PMC4063869, “Structure of CbpA J-Domain Bound to the Regulatory Protein CbpM Explains Its Specificity and Suggests Evolutionary Link between CbpM and Transcriptional Regulators” (PLoS ONE, 2014)

What was measured:
[1] = target: Klebsiella pneumoniae CbpM (residues 2-101) (Klebsiella pneumoniae (strain ATCC 700721/MGH 78578)); assay: crystal structure; K. pneumoniae CbpM with E. coli CbpA^Jdom, complex separated from excess CbpA^Jdom on Superdex 75; hanging drop, 0.1 M HEPES pH 7, 20% (w/v) PEG 8K; 1.87 Å
[2] = target: T1, CbpM (residues 2-101), species not named for the experiment ( (E. coli K-12 or K. …, UniProt P63264 2-101)); assay: SPR; CbpM immobilised, DnaJ^Jdom variants injected (50 µL/min, 120 s); ProteOn XPR36, 25°C, 50 mM sodium phosphate pH 7.4, 100 mM NaCl, 1 mM DTT, 0.005% Tween 20; steady-state equilibrium fit (one site); conditions: both partners purified
T1 construct: CbpM residues 2-101; the immobilisation is told there; also called immobilized CbpM; source: E. coli Rosetta pLysS, purified (Ni-NTA, tag cleaved, amylose resin, size exclusion); not shown: His-MBP, N-terminal, cleaved
T1 sequence: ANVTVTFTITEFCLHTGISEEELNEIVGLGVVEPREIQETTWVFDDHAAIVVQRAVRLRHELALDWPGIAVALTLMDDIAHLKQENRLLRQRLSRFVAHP

[3] = target: the molecule itself; assay: crystal structure; K. pneumoniae CbpM with E. coli CbpA^Jdom, complex separated from excess CbpA^Jdom on Superdex 75; hanging drop, 0.1 M HEPES pH 7, 20% (w/v) PEG 8K; 1.87 Å

J-domain of E. coli CbpA (CbpA^Jdom) (domain or fragment)
stoichiometry N (binder:target chains (printed 2:2)) [1]: 1

B1: Chimeric DnaJ^Jdom(25-47): DnaJ J-domain with the central region Y25-F47 replaced by that of CbpA^Jdom (domain or fragment, E. coli, UniProt P08622 2-79, looked up)
chain: AKQDYYEILGVSKTAEEREIRKAYRRLARKYHPDVSKEPDAEARFKEIKEAYEVLTDSQKRAAYDQYGHAAFEQGGM
notes: DnaJ of E. coli, J-domain, residues 2-79, with residues 25-47 replaced by residues 25-46 of E. coli CbpA; also called chimera DnaJ^Jdom (25-47); source: E. coli Rosetta pLysS, purified (glutathione sepharose, tag cleaved, size exclusion); not shown: GST, N-terminal, cleaved
Kd [2]: 26 µM

B2: Klebsiella pneumoniae CbpM (residues 2-101) (natural protein, UniProt A0A378AXB4 2-101, looked up)
chain: ATVTVTFTITELCLRTGVSEEELTEIVGLGMIEPHQPQADTWLFDDSAVTIVHRAVRLRNELELDWPGIAVALTLLDENARLTRENRLLQQRLARFLAHG
notes: CbpM of Klebsiella pneumoniae (strain ATCC 700721/MGH 78578), residues 2-101, amplified from genomic DNA; Forms a parallel coiled-coil dimer in the crystal; each CbpA J-domain touches both subunits; also called K. pneumoniae CbpM; Klebsiella CbpM; source: E. coli Rosetta pLysS, purified (Ni-NTA, tag cleaved, amylose resin, size exclusion); not shown: His-MBP, N-terminal, cleaved
stoichiometry N [3]: 2
